Like-named read-outs stand apart in the source and are kept apart here.

For orientation: Kd means the equilibrium constant for the complex coming apart. The low end stands for a tighter complex, the high end for a looser complex. By koff is commonly meant the first-order rate constant of dissociation. A word on the kon: it is the rate constant with which the complex forms. Broadly, the EC50 (read off the curve) is the concentration needed to bring the measured effect to its halfway point.

The target of assay [1] is T1, Tag1-CD47 (UniProt Q08722 19-139).
T1 construct: Bought kit reagent
As to the kind of experiment: HTRF CD47/SIRPα binding assay (Cisbio): blocking of Tag2-SIRPa binding to Tag1-CD47; axis numbers -3 to 3 read as log10 of nM. The text has this:
Fluorescence data were read on a PerkinElmer Envision plate reader using laser as light source.
On the technique in general: TR-FRET usually uses a lanthanide donor and a delayed reading to cut background.

Assay [2] deals with T2, human PD-L1 on cells (human, UniProt Q9NZQ7 19-290).
T2 construct: whole, on cells; also called Raji cells overexpressing human PD-L1; Raji-PD-L1 cells
As to the kind of experiment: flow cytometry on RKO cells, which carry both human CD47 and human PD-L1; APC-labelled secondary antibody; signal not resolved between the two arms. The method, then: (§1) RKO cells are human colon carcinoma cell lines that express endogenous level of human CD47 and human PD-L1 on the surface. RKO cells were incubated with serial diluted anti-CD47/PD-L1 bispecific antibodies, parental CD47 or PD-L1 monospecific antibodies at 4° C. for 30 minutes. Then cells were washed with FACS buffer three times, followed by incubation with APC-labeled secondary antibody at 4° C. for 30 minutes. Then cells were washed with FACS buffer for three times. Binding was measured by flow cytometry.
(In general: Flow cytometry measures light scatter and fluorescence of single cells or particles in a stream.)

Assay [3] deals with T3, human PD-L1-his (human, UniProt Q9NZQ7 19-238).
T3 construct: also called hPD-L1-his; human His-PD-L1
Nature of the assay: SPR, Biacore T200, antibody captured on protein A chip, hPD-L1-his 6.25-100 nM as analyte. The procedure:
The binding affinity of the PD-L1/TIGIT bsAb to recombinant human his-tagged PD-L1 protein was tested by BIACORE®. […] A series of dilutions of human PD-L1 protein (6.25 nM-100 nM) were injected over captured antibody at a flow rate of 10 μL/min. The antigen was allowed to associate for 180 s and dissociate for 1200 s. All the experiments were carried out on a Biacore T200. Data analysis was carried out using Biacore T200 evaluation software.

Assay [4] addresses T3, human PD-L1-his. As to the kind of experiment: ELISA, plate coated with human His-PD-L1, detection goat anti-human IgG Fc HRP [panel A]. An excerpt: (§2) Binding of the anti-PD-L1/TIGIT bsAb molecules with human PD-L1 was further analyzed by ELISA.
Background: An ELISA detects its analyte on a solid surface through an enzyme-linked reagent.

Assay [5] has as its target T4, His-tagged human TIGIT-ECD protein (human, UniProt Q495A1 22-141).
T4 construct: extracellular domain; also called hTIGIT-his
T4 sequence (looked up): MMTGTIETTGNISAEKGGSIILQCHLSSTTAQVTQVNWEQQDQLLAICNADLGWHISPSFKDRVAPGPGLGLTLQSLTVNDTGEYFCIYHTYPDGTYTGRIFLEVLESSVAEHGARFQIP
Nature of the assay: ELISA on His-tagged human TIGIT.

For assay [6], the target named is T4, His-tagged human TIGIT-ECD protein. Nature of the assay: SPR, Biacore T200, antibody captured on protein A chip, hTIGIT-his 0.78-12.5 nM as analyte. The text has this: The antibodies were captured by Protein A chip. […] The association phase was 180 s and the dissociation phase was 1200 s.
Assay [7] addresses T2, human PD-L1 on cells. Nature of the assay: flow cytometry on Raji cells overexpressing human PD-L1, PE-anti-hu IgG. The procedure:
Binding capability of the anti-PD-L1 antibody of the present application was further evaluated by using Raji cells overexpressing human PD-L1. Briefly, 50 μl Raji cells overexpressing human PD-L1 were seeded into 96 well plate at a concentration of 2*10⁵ cells/well. […] Then the cells were washed twice by FACS buffer and supplemented with 100 μl PE-anti-hu IgG, followed by incubation on ice for 1 hour. After incubation, the cells in each well were collected and resuspended with 65 μl FACS buffer for analysis by flow cytometry.

Assay [8] concerns the target T2, human PD-L1 on cells. Nature of the assay: flow cytometry on RKO cells (endogenous CD47 and PD-L1), APC-labelled secondary antibody. The method, then:
as §1

In assay [9] the target is T3, human PD-L1-his. As to the kind of experiment: ELISA, plate coated with human His-PD-L1, detection goat anti-human IgG Fc HRP. An excerpt: Binding properties of the humanized anti-PD-L1 antibody of the present application were first evaluated by ELISA assay.
Assay [10] concerns the target T3, human PD-L1-his. Nature of the assay: SPR, Biacore, full kinetics, antigen 100-1.5625 nM.
The target in assay [11] is T2, human PD-L1 on cells. As to the kind of experiment: flow cytometry on Raji cells overexpressing human PD-L1, PE-anti-hu IgG [panel C]. The method, then:
Furthermore, binding capability of the anti-PD-L1/TIGIT bsAbs of the present application with cells expressing PD-L1 was analyzed by using Raji-PD-L1 cells. Briefly, 50 μl Raji cells overexpressing human PD-L1 were seeded into 96 well plate with 2*10⁵ cells/well.

For assay [12], the target named is T3, human PD-L1-his. Nature of the assay: ELISA, plate coated with human His-PD-L1, detection goat anti-human IgG Fc HRP [panel B].
Excerpt: as §2

Assay [13] deals with T4, His-tagged human TIGIT-ECD protein. Nature of the assay: ELISA on His-tagged human TIGIT. This is another data set of the same source.

T3 sequence (Q9NZQ7 19-238 limits assumed): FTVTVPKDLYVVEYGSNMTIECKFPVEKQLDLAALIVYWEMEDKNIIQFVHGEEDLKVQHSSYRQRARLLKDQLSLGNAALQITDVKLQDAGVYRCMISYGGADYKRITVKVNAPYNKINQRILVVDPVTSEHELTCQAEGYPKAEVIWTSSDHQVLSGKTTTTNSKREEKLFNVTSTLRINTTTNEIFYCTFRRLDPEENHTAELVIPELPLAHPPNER
T2 sequence (Q9NZQ7 19-290): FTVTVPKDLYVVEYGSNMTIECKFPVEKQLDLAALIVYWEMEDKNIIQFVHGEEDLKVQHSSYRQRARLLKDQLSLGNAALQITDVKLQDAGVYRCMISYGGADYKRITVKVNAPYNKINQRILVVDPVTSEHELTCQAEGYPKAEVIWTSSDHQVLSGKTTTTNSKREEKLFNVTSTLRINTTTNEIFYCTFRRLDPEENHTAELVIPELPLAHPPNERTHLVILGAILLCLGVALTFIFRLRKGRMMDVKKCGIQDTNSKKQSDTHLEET
T1 sequence (Q08722 19-139 limits assumed): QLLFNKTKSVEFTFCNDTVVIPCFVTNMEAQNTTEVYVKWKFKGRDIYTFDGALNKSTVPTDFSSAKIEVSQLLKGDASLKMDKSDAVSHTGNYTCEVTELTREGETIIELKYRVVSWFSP

B1: 34C5-L-93VH6-IgG1 (bispecific antibody)
heavy: not shown
light: DIQMTQSPSSLSASVGDRVTITCRASQDISDYLNWYQQKPGKAPKLLIYYISRLHSGVPSRFSGSGSGTDYTLTISSLQPEDFATYYCQQGHTLPWTFGGGTKVEIKGGGGSGGGGSGGGGSGGGGSEVQLVESGGGLVQPGGSLRLSCAASGFTFTFRHYVMGWFRQAPGKEREFVAAISWSGSGSYYADSVKGRFTISRDNSKNTVYLQMNSLRAEDTAVYYCAADMTTRMSQASREYDYWGQGTLVTVSSRTVAAPSVFIFPPSDEQLKSGTASVVCLLNNFYPREAKVQWKVDNALQSGNSQESVTEQDSKDSTYSLSSTLTLSKADYEKHKVYACEVTHQGLSSPVTKSFNRGEC
notes: Symmetric 'two to two' anti-CD47/PD-L1 bispecific
For the molecule B1, in assay [1], the “IC50 (read off the curve)” value was about 1000 pM. Besides, in assay [2], the binding result was “binds”.

B2: TIGIT-CL-93-VH6 (bispecific antibody, human IgG1, kappa)
heavy: not shown
light: DIVMTQSPSSLSASVGDRVTITCKASQDVDTAVAWYQQKPGKAPKLLIYWASARHTGVPSRFSGSGSGTDFTFTISSLQPEDIATYYCQQYSNYPLTFGQGTKLEIKRTVAAPSVFIFPPSDEQLKSGTASVVCLLNNFYPREAKVQWKVDNALQSGNSQESVTEQDSKDSTYSLSSTLTLSKADYEKHKVYACEVTHQGLSSPVTKSFNRGECGGGGSGGGGSGGGGSGGGGSEVQLVESGGGLVQPGGSLRLSCAASGFTFTFRHYVMGWFRQAPGKEREFVAAISWSGSGSYYADSVKGRFTISRDNSKNTVYLQMNSLRAEDTAVYYCAADMTTRMSQASREYDYWGQGTLVTVSS
notes: Two 93-VH6 fused to the C-termini of the anti-TIGIT light chains; also called TIGIT-CL-PD-L1 format
For B2, in assay [3], the affinity, expressed as Kd, was 3970 pM; the koff was 0.000143 s⁻¹; the association rate constant (kon) came to 35900 M⁻¹ s⁻¹. Also, the “EC50 (read off the curve)” value in assay [4] was about 1000 pM. Moreover, the “EC50 (read off the curve)” value in [5] is about 500 pM. In assay [6], this molecule gave a Kd of 103 pM, a dissociation rate constant (koff) of 0.000176 s⁻¹ and a kon of 1.72e+06 M⁻¹ s⁻¹.

B3: 93-VH-6 (VHH)
VHH: EVQLVESGGGLVQPGGSLRLSCAASGFTFTFRHYVMGWFRQAPGKEREFVAAISWSGSGSYYADSVKGRFTISRDNSKNTVYLQMNSLRAEDTAVYYCAADMTTRMSQASREYDYWGQGTLVTVSS
notes: Humanized anti-PD-L1 single domain antibody; the assays imply a human Fc part that is not described; also called PD-L1 Ab (93-VH6); 93-VH6 sdAb
As to B3, the Kd in [3] is 3640 pM; in assay [10] it was 2060 pM. Besides, the koff worked out at 0.000128 s⁻¹ in [3] and 0.000197 s⁻¹ in assay [10]. Further, the values for the on-rate (kon) in assay [3] and in assay [10] were 35300 M⁻¹ s⁻¹ and 95900 M⁻¹ s⁻¹, respectively. Besides, the “EC50 (read off the curve)” value in assay [7] is about 400 pM; in assay [8], about 300 pM; in assay [4], about 1000 pM; in assay [9], about 20 pM.

B4: TIGIT-Fc-93-VH6 (bispecific antibody, human IgG1, kappa)
heavy: not shown
light: DIVMTQSPSSLSASVGDRVTITCKASQDVDTAVAWYQQKPGKAPKLLIYWASARHTGVPSRFSGSGSGTDFTFTISSLQPEDIATYYCQQYSNYPLTFGQGTKLEIKRTVAAPSVFIFPPSDEQLKSGTASVVCLLNNFYPREAKVQWKVDNALQSGNSQESVTEQDSKDSTYSLSSTLTLSKADYEKHKVYACEVTHQGLSSPVTKSFNRGEC
notes: Two 93-VH6 fused to the C-termini of the anti-TIGIT heavy chains; also called TIGIT-Fc-PD-L1 format
As to B4, the Kd in [3] is 1140 pM; in assay [6], 112 pM. The koff in [3] amounted to 4.25e-05 s⁻¹; in assay [6], 0.000139 s⁻¹. For the same molecule, the kon was 37100 M⁻¹ s⁻¹ in assay [3] and 1.24e+06 M⁻¹ s⁻¹ in assay [6]. Besides, the figures for the “EC50 (read off the curve)” value in [4] and in assay [5] were about 2000 pM and about 500 pM, respectively.

B5: TIGIT-Fc-112-VH47 (bispecific antibody, human IgG1, kappa)
heavy: not shown
light: DIVMTQSPSSLSASVGDRVTITCKASQDVDTAVAWYQQKPGKAPKLLIYWASARHTGVPSRFSGSGSGTDFTFTISSLQPEDIATYYCQQYSNYPLTFGQGTKLEIKRTVAAPSVFIFPPSDEQLKSGTASVVCLLNNFYPREAKVQWKVDNALQSGNSQESVTEQDSKDSTYSLSSTLTLSKADYEKHKVYACEVTHQGLSSPVTKSFNRGEC
B5: the “EC50 (read off the curve)” value is about 400 pM in assay [11], about 20 pM in [12] and about 10 pM in assay [13].

B6: TIGIT-Fc-93-VH6*2 (bispecific antibody, human IgG1, kappa)
heavy: not shown
light: DIVMTQSPSSLSASVGDRVTITCKASQDVDTAVAWYQQKPGKAPKLLIYWASARHTGVPSRFSGSGSGTDFTFTISSLQPEDIATYYCQQYSNYPLTFGQGTKLEIKRTVAAPSVFIFPPSDEQLKSGTASVVCLLNNFYPREAKVQWKVDNALQSGNSQESVTEQDSKDSTYSLSSTLTLSKADYEKHKVYACEVTHQGLSSPVTKSFNRGEC
notes: Four 93-VH6, two in tandem at the C-terminus of each anti-TIGIT heavy chain; also called TIGIT-Fc-PD-93-VH6*2; TIGIT-Fc-PD-L1*2 format
B6: the values for the Kd in assay [3] and in [6] were 5400 pM and 91.2 pM, respectively. Moreover, the off-rate (koff) came to 0.000118 s⁻¹ in assay [3] and 0.000131 s⁻¹ in [6]. For the same molecule, the kon is 21900 M⁻¹ s⁻¹ in assay [3] and 1.43e+06 M⁻¹ s⁻¹ in [6]. Further, the “EC50 (read off the curve)” value was about 800 pM in [4] and about 600 pM in assay [5].

B7: 112-VH47 (VHH)
VHH: EVQLVESGGGLVQPGGSLRLSCAASGFTFSSGTQFSDSKIDWYRQAPGKGLVWVAGIFSTGSTIYEDSVKGRFTISRDNAKNTGYLQMNSLRAEDTAVYYCRVIGRGILAWGQGTLVTVSS
notes: Humanized anti-PD-L1 single domain antibody
For B7, the “EC50 (read off the curve)” value in assay [11] is about 300 pM; in [7] it was about 300 pM; in [12], about 9 pM; in assay [9], about 9 pM.

B8: 13H3-L-93VH6-IgG1 (bispecific antibody)
heavy: not shown
light: DIVMTQSPDSLAVSLGERATINCKSSQSVLYAGNNRNYLAWYQQKPGQPPKLLINQASTRASGVPDRFSGSGSGTEFTLIISSLQAEDVAIYYCQQYYTPPLAFGGGTKLEIKGGGGSGGGGSGGGGSGGGGSEVQLVESGGGLVQPGGSLRLSCAASGFTFTFRHYVMGWFRQAPGKEREFVAAISWSGSGSYYADSVKGRFTISRDNSKNTVYLQMNSLRAEDTAVYYCAADMTTRMSQASREYDYWGQGTLVTVSSRTVAAPSVFIFPPSDEQLKSGTASVVCLLNNFYPREAKVQWKVDNALQSGNSQESVTEQDSKDSTYSLSSTLTLSKADYEKHKVYACEVTHQGLSSPVTKSFNRGEC
notes: as for B1
In the case of B8, the “IC50 (read off the curve)” value in [1] is about 1000 pM. Also, the binding result in assay [2] is on record as “binds”.

(Values after US20240209093A1 (I MAB BIOPHARMA, published 2024).)
